Measured values as given in PMC8562373 (Biochemistry (Moscow) Supplement. Series B, Biomedical …, 2021).

Molecular target: SARS-CoV-2 protein S receptor-binding domain (RBD), original Wuhan strain (SARS-CoV-2, UniProt P0DTC2 331-524)
Assay: MST

Binder | Kd [mM]
IEEQAKTFLDKFNHQAEDLFYK [h1-Mpa peptide (h1 with Lys31 modified with 3-mercaptopropionic acid)] | > 1
DKWSAFLKECSTIAQIYPLQEI [h2-Cys peptide (h2 with Gln76 replaced with Cys76)] | > 1
